Changes are numbered by the printed parent chain.

The target of test [1] is T1, CXCR3 I279A (Homo sapiens, UniProt P49682, I279A).
T1 construct: expressed in transfected cells; host or cells: murine pre-B cell line L1.2, transient transfection
T1 sequence (P49682 1-368 I279A): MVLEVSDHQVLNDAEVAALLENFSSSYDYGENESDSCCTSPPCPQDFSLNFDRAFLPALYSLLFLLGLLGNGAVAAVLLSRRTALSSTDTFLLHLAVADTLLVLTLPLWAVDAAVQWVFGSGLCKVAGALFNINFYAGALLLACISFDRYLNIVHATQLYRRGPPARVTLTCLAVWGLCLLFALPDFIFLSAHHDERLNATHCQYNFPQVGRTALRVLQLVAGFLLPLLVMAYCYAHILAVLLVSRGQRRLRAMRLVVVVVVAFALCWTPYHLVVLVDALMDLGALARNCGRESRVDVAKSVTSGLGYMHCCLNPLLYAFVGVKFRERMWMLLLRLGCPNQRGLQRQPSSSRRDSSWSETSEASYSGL
The test can be described thus: Whole-cell 125I-CXCL11 binding assay, L1.2 transfectants. Conditions: I279A versus WT.

Test [2] has as its target T2, CXCR3 (Homo sapiens, UniProt P49682).
T2 sequence (P49682 1-368): T1 sequence (P49682 1-368 I279A) with A279I
The test can be described thus: Activity at CXCR3 (data not shown).

Test [3] concerns the target T3, CXCL11 (Homo sapiens, UniProt O14625).
T3 chain: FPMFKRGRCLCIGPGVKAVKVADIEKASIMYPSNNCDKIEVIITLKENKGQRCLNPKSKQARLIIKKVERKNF
The experiment in a line: homologous competition binding with 125I-CXCL11 on L1.2 transfectants.

As for `CCOc1ccc(-n2c(C(C)N(Cc3cccnc3)C(=O)Cc3ccc(OC(F)(F)F)cc3)nc3ncccc3c2=O)cc1` (stereo not drawn) [VUF 10085, N-1R-[3-(4-ethoxy-phenyl)-4-oxo-3,4-dihydro-pyrido[2,3-d]pyrimidin-2-yl]-ethyl-N-pyridin-3-ylmethyl-2-(4-trifluoromethoxy-phenyl)-acetamide], the “decrease in potency, ligand binding” value in test [1] is on record as “twofold”.
Regarding `CCCCOCCOc1ccc(-c2ccc3c(c2)/C=C(/C(=O)Nc2ccc([S@@+]([O-])Cc4cncn4CCC)cc2)CCCN3CC(C)C)cc1` [TAK-652], in test [2], the “activity at CXCR3” value is on record as “devoid of activity”.

B1: CXCR3 (protein)
chain: T1 sequence (P49682 1-368 I279A) with Y205A, A279I
In test [3], B1 came in with a Kd of 10.4 nM.

B2: CXCR3 (protein)
chain: T1 sequence (P49682 1-368 I279A) with H202A, A279I
In test [3], B2 had a dissociation constant (Kd) of 2.9 nM.

B3: CXCR3 (protein)
chain: T1 sequence (P49682 1-368 I279A) with V275A, A279I
Molecule B3 returned a Kd in test [3] of 7.4 nM.

B4: CXCR3 (protein)
chain: T1 sequence (P49682 1-368 I279A) with A279I
The molecule B4 came in with a Kd in test [3] of 7.7 nM.

B5: CXCR3 (protein)
chain: T1 sequence (P49682 1-368 I279A) with F131A, A279I
B5 came in with a Kd in test [3] of 1.1 nM.

B6: CXCR3 (protein)
chain: T1 sequence (P49682 1-368 I279A) with Y60A, A279I
On to B6, for which the dissociation constant (Kd) in test [3] worked out at 1.8 nM.

The Kd is the equilibrium constant for the complex coming apart. High values mean lower affinity, low ones higher affinity.

For the origin of these results see article PMC4376459, “CXCR3 antagonist VUF10085 binds to an intrahelical site distinct from that of the broad spectrum antagonist TAK-779” (British Journal of Pharmacology, 2015).
